Fold difference in co-purification, wild-type over N74D CA-NC and fold more precipitated than by wild-type CA-NC complexes data for two substances are collected here from PMC2841689.

The target of the assay is N74D HIV-1 CA-NC complexes (HIV-1). Put plainly: co-sedimentation.

“human CPSF6-358 (C-terminally truncated CPSF6), HA-tagged (from UniProt Q16630-2 1-358) (domain or fragment)” registered a fold difference in co-purification, wild-type over N74D CA-NC of 3.9 fold.
With “rhesus TRIM5alpha, HA-tagged (from UniProt Q0PF16 1-497) (natural protein)”, the fold more precipitated than by wild-type CA-NC complexes was 2 fold.
